T1: membrane IL-6R on BAF/gp130/IL6R/TNF cells (Homo sapiens) (UniProt P08887)
T1 sequence: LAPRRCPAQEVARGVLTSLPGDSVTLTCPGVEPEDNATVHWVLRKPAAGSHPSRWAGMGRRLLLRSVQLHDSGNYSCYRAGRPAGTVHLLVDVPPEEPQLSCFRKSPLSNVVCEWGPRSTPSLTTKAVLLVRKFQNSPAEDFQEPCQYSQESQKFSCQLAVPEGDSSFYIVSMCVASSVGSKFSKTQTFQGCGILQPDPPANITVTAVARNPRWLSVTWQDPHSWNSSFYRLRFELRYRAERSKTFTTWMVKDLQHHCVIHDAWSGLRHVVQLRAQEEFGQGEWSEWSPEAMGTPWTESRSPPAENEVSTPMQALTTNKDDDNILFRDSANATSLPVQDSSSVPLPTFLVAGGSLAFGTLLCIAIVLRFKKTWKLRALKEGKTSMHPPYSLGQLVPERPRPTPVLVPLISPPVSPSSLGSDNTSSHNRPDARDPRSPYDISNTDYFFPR

B1: G17U (ssRNA)
RNA: GGGGAGGCUGUGGUGAUGG
B2: AIR-3A (structured_RNA)
RNA: GGGGAGGCUGUGGUGAGGG
B3: G18U (ssRNA)
RNA: GGGGAGGCUGUGGUGAGUG
B4: G17U/G18U (ssRNA)
RNA: GGGGAGGCUGUGGUGAUUG

Columns and labels:
[1] = biological target: T1, membrane IL-6R on BAF/gp130/IL6R/TNF cells (Homo sapiens); assay: flow cytometry
[2] = biological target: T2, Hyper-IL-6 (IL-6 and sIL-6R fusion, flexible linker) (Homo sapiens, UniProt P08887 113-323+P05231:29-212, internal_change); assay: filter binding
[3] = biological target: T2, Hyper-IL-6 (IL-6 and sIL-6R fusion, …); assay: filter binding; remark: listed apart in the source

Molecule	binding result [2]	other results
GGGGAGGCUGUGGUGAGGG [AIR-3A Atto647N]	–	Kd [1]: 8.5 nM
B1	no binding	–
B2	–	Kd [3]: 60.4 ± 16 nM
B3	no binding	–
B4	no binding	–

— publication PMC3342945
